In patent US20070078092A1 (CUREGENICS, published 2007):
Numbered stars: 1 amine (or outer) side, 2 acyl side, 3 side chain; on linkers, the order of the positions; unused ones are H or OH. Square brackets hold non-standard residues; d marks the D form. * marks the point of attachment. Cholesteryloxycarbonyl = CC(C)CCC[C@@H](C)[C@H]1CC[C@H]2[C@@H]3CC=C4C[C@@H](OC(=O)*)CC[C@]4(C)[C@H]3CC[C@]12C; Ser(Me) = COC[C@H](N[*:1])C(=O)[*:2]; hLeu = CC(C)CC[C@H](N)C(=O)O; Orn = NCCC[C@H](N)C(=O)O; Nva = CCC[C@H](N)C(=O)O; Dap = NC[C@H](N)C(=O)O

Molecular target: protein kinase B (PKB)
Assay: cell-based or functional assay

Row | IC50, in vitro kinase assay PKB [nM] | Binder
1 | 1000 | Cholesteryloxycarbonyl-GGGGRPR[Nva]Y[Dap][hLeu]-NH2 (SMILES CCC[C@H](NC(=O)[C@H](CCCNC(=N)N)NC(=O)[C@@H]1CCCN1C(=O)[C@H](CCCNC(=N)N)NC(=O)CNC(=O)CNC(=O)CNC(=O)CNC(=O)O[C@H]1CC[C@@]2(C)C(=CC[C@H]3[C@@H]4CC[C@H]([C@H](C)CCCC(C)C)[C@@]4(C)CC[C@@H]32)C1)C(=O)N[C@@H](Cc1ccc(O)cc1)C(=O)N[C@@H](CN)C(=O)N[C@@H](CCC(C)C)C(N)=O) [PTR 6332]
2 | 200 | Cholesteryloxycarbonyl-KKKRPR[Nva]Y[Dap][hLeu]-OH (SMILES CCC[C@H](NC(=O)[C@H](CCCNC(=N)N)NC(=O)[C@@H]1CCCN1C(=O)[C@H](CCCNC(=N)N)NC(=O)[C@H](CCCCN)NC(=O)[C@H](CCCCN)NC(=O)[C@H](CCCCN)NC(=O)O[C@H]1CC[C@@]2(C)C(=CC[C@H]3[C@@H]4CC[C@H]([C@H](C)CCCC(C)C)[C@@]4(C)CC[C@@H]32)C1)C(=O)N[C@@H](Cc1ccc(O)cc1)C(=O)N[C@@H](CN)C(=O)N[C@@H](CCC(C)C)C(=O)O) [PTR 6352]
3 | 2000 | Cholesteryloxycarbonyl-RPR[Nva]Y[Dap]-OH (SMILES CCC[C@H](NC(=O)[C@H](CCCNC(=N)N)NC(=O)[C@@H]1CCCN1C(=O)[C@H](CCCNC(=N)N)NC(=O)O[C@H]1CC[C@@]2(C)C(=CC[C@H]3[C@@H]4CC[C@H]([C@H](C)CCCC(C)C)[C@@]4(C)CC[C@@H]32)C1)C(=O)N[C@@H](Cc1ccc(O)cc1)C(=O)N[C@@H](CN)C(=O)O) [PTR 6390]
4 | 2000 | Cholesteryloxycarbonyl-RP[Orn][Nva]Y[Dap][hLeu]-NH2 (SMILES CCC[C@H](NC(=O)[C@H](CCCN)NC(=O)[C@@H]1CCCN1C(=O)[C@H](CCCNC(=N)N)NC(=O)O[C@H]1CC[C@@]2(C)C(=CC[C@H]3[C@@H]4CC[C@H]([C@H](C)CCCC(C)C)[C@@]4(C)CC[C@@H]32)C1)C(=O)N[C@@H](Cc1ccc(O)cc1)C(=O)N[C@@H](CN)C(=O)N[C@@H](CCC(C)C)C(N)=O) [PTR 6388]
5 | 1400 | XPRXYXX (N-terminal Cholesteryl-O-CO-; Nva, Dap, Hol; C-terminal NH2) [PTR 6374]
6 | 100 | Cholesteryloxycarbonyl-[dK][dK][dK][dK][dK][dK]RPR[Nva]Y[Ser(Me)][hLeu]-NH2 (SMILES CCC[C@H](NC(=O)[C@H](CCCNC(=N)N)NC(=O)[C@@H]1CCCN1C(=O)[C@H](CCCNC(=N)N)NC(=O)[C@@H](CCCCN)NC(=O)[C@@H](CCCCN)NC(=O)[C@@H](CCCCN)NC(=O)[C@@H](CCCCN)NC(=O)[C@@H](CCCCN)NC(=O)[C@@H](CCCCN)NC(=O)O[C@H]1CC[C@@]2(C)C(=CC[C@H]3[C@@H]4CC[C@H]([C@H](C)CCCC(C)C)[C@@]4(C)CC[C@@H]32)C1)C(=O)N[C@@H](Cc1ccc(O)cc1)C(=O)N[C@@H](COC)C(=O)N[C@@H](CCC(C)C)C(N)=O) [PTR 6338]
7 | 5000 | {Coumarin‑3‑oyl}-RPR[Nva]Y[Dap][hLeu]-NH2 [PTR 6392]
8 | 200 | Cholesteryloxycarbonyl-RPR[Nva]Y[Dap][hLeu][dK][dK][dK]-NH2 (SMILES CCC[C@H](NC(=O)[C@H](CCCNC(=N)N)NC(=O)[C@@H]1CCCN1C(=O)[C@H](CCCNC(=N)N)NC(=O)O[C@H]1CC[C@@]2(C)C(=CC[C@H]3[C@@H]4CC[C@H]([C@H](C)CCCC(C)C)[C@@]4(C)CC[C@@H]32)C1)C(=O)N[C@@H](Cc1ccc(O)cc1)C(=O)N[C@@H](CN)C(=O)N[C@@H](CCC(C)C)C(=O)N[C@H](CCCCN)C(=O)N[C@H](CCCCN)C(=O)N[C@H](CCCCN)C(N)=O) [PTR 6346]

The remaining lines, values behind:

Row | Binder | IC50, in vitro kinase assay PKB [nM]
9 | XPRXYXX (Nva, Dap, Hol; C-terminal NH2) [PTR 6366] | > 10000
10 | H-[Orn]P[Orn][Nva]Y[Dap][hLeu]-NH2 (SMILES CCC[C@H](NC(=O)[C@H](CCCN)NC(=O)[C@@H]1CCCN1C(=O)[C@@H](N)CCCN)C(=O)N[C@@H](Cc1ccc(O)cc1)C(=O)N[C@@H](CN)C(=O)N[C@@H](CCC(C)C)C(N)=O) [PTR 6384] | > 10000
11 | XPHXYXX (Nva, Dap, Hol; C-terminal NH2) [PTR 6370] | > 10000
12 | H-[Orn]PR[Nva]Y[Dap][hLeu]-NH2 (SMILES CCC[C@H](NC(=O)[C@H](CCCNC(=N)N)NC(=O)[C@@H]1CCCN1C(=O)[C@@H](N)CCCN)C(=O)N[C@@H](Cc1ccc(O)cc1)C(=O)N[C@@H](CN)C(=O)N[C@@H](CCC(C)C)C(N)=O) [PTR 6380] | > 10000
13 | Cholesteryloxycarbonyl-[Orn]PR[Nva]Y[Dap][hLeu]-NH2 (SMILES CCC[C@H](NC(=O)[C@H](CCCNC(=N)N)NC(=O)[C@@H]1CCCN1C(=O)[C@H](CCCN)NC(=O)O[C@H]1CC[C@@]2(C)C(=CC[C@H]3[C@@H]4CC[C@H]([C@H](C)CCCC(C)C)[C@@]4(C)CC[C@@H]32)C1)C(=O)N[C@@H](Cc1ccc(O)cc1)C(=O)N[C@@H](CN)C(=O)N[C@@H](CCC(C)C)C(N)=O) [PTR 6382] | 360
14 | Cholesteryloxycarbonyl-[Orn]P[Orn][Nva]Y[Dap][hLeu]-NH2 (SMILES CCC[C@H](NC(=O)[C@H](CCCN)NC(=O)[C@@H]1CCCN1C(=O)[C@H](CCCN)NC(=O)O[C@H]1CC[C@@]2(C)C(=CC[C@H]3[C@@H]4CC[C@H]([C@H](C)CCCC(C)C)[C@@]4(C)CC[C@@H]32)C1)C(=O)N[C@@H](Cc1ccc(O)cc1)C(=O)N[C@@H](CN)C(=O)N[C@@H](CCC(C)C)C(N)=O) [PTR 6386] | 2000
15 | Cholesteryloxycarbonyl-KKKRPR[Nva]Y[Dap][hLeu]-NH2 (SMILES CCC[C@H](NC(=O)[C@H](CCCNC(=N)N)NC(=O)[C@@H]1CCCN1C(=O)[C@H](CCCNC(=N)N)NC(=O)[C@H](CCCCN)NC(=O)[C@H](CCCCN)NC(=O)[C@H](CCCCN)NC(=O)O[C@H]1CC[C@@]2(C)C(=CC[C@H]3[C@@H]4CC[C@H]([C@H](C)CCCC(C)C)[C@@]4(C)CC[C@@H]32)C1)C(=O)N[C@@H](Cc1ccc(O)cc1)C(=O)N[C@@H](CN)C(=O)N[C@@H](CCC(C)C)C(N)=O) [PTR 6344] | 300
16 | Cholesteryloxycarbonyl-[dK][dK][dK]RPR[Nva]Y[Ser(Me)][hLeu]-NH2 (SMILES CCC[C@H](NC(=O)[C@H](CCCNC(=N)N)NC(=O)[C@@H]1CCCN1C(=O)[C@H](CCCNC(=N)N)NC(=O)[C@@H](CCCCN)NC(=O)[C@@H](CCCCN)NC(=O)[C@@H](CCCCN)NC(=O)O[C@H]1CC[C@@]2(C)C(=CC[C@H]3[C@@H]4CC[C@H]([C@H](C)CCCC(C)C)[C@@]4(C)CC[C@@H]32)C1)C(=O)N[C@@H](Cc1ccc(O)cc1)C(=O)N[C@@H](COC)C(=O)N[C@@H](CCC(C)C)C(N)=O) [PTR 6348] | 200
17 | Cholesteryloxycarbonyl-GGGGGRPR[Nva]Y[Dap][hLeu]-NH2 (SMILES CCC[C@H](NC(=O)[C@H](CCCNC(=N)N)NC(=O)[C@@H]1CCCN1C(=O)[C@H](CCCNC(=N)N)NC(=O)CNC(=O)CNC(=O)CNC(=O)CNC(=O)CNC(=O)O[C@H]1CC[C@@]2(C)C(=CC[C@H]3[C@@H]4CC[C@H]([C@H](C)CCCC(C)C)[C@@]4(C)CC[C@@H]32)C1)C(=O)N[C@@H](Cc1ccc(O)cc1)C(=O)N[C@@H](CN)C(=O)N[C@@H](CCC(C)C)C(N)=O) [PTR 6334] | 1000
18 | Cholesteryloxycarbonyl-RPH[Nva]Y[Dap][hLeu]-NH2 (SMILES CCC[C@H](NC(=O)[C@H](Cc1c[nH]cn1)NC(=O)[C@@H]1CCCN1C(=O)[C@H](CCCNC(=N)N)NC(=O)O[C@H]1CC[C@@]2(C)C(=CC[C@H]3[C@@H]4CC[C@H]([C@H](C)CCCC(C)C)[C@@]4(C)CC[C@@H]32)C1)C(=O)N[C@@H](Cc1ccc(O)cc1)C(=O)N[C@@H](CN)C(=O)N[C@@H](CCC(C)C)C(N)=O) [PTR 6376] | 2000
19 | H-RPH[Nva]Y[Dap][hLeu]-NH2 (SMILES CCC[C@H](NC(=O)[C@H](Cc1c[nH]cn1)NC(=O)[C@@H]1CCCN1C(=O)[C@@H](N)CCCNC(=N)N)C(=O)N[C@@H](Cc1ccc(O)cc1)C(=O)N[C@@H](CN)C(=O)N[C@@H](CCC(C)C)C(N)=O) [PTR 6368] | > 10000
20 | {Cholesteryl‑O‑CO‑(CH2)2‑CO}-[dK][dK][dK]RPR[Nva]Y[Dap][hLeu]-NH2 [PTR 6356] | 170
21 | Cholesteryloxycarbonyl-GGGGGGRPR[Nva]Y[Dap][hLeu]-NH2 (SMILES CCC[C@H](NC(=O)[C@H](CCCNC(=N)N)NC(=O)[C@@H]1CCCN1C(=O)[C@H](CCCNC(=N)N)NC(=O)CNC(=O)CNC(=O)CNC(=O)CNC(=O)CNC(=O)CNC(=O)O[C@H]1CC[C@@]2(C)C(=CC[C@H]3[C@@H]4CC[C@H]([C@H](C)CCCC(C)C)[C@@]4(C)CC[C@@H]32)C1)C(=O)N[C@@H](Cc1ccc(O)cc1)C(=O)N[C@@H](CN)C(=O)N[C@@H](CCC(C)C)C(N)=O) [PTR 6336] | 1000
22 | H-RP[Orn][Nva]Y[Dap][hLeu]-NH2 (SMILES CCC[C@H](NC(=O)[C@H](CCCN)NC(=O)[C@@H]1CCCN1C(=O)[C@@H](N)CCCNC(=N)N)C(=O)N[C@@H](Cc1ccc(O)cc1)C(=O)N[C@@H](CN)C(=O)N[C@@H](CCC(C)C)C(N)=O) [PTR 6372] | > 10000
